According to article PMC4491233:

Target: GST-MSY3 phosphorylated in vitro by Akt (UniProt Q9JKB3)
Assay: EMSA
Details: prior phosphorylation by Akt; binding reduced more than 50%; EMSA per earlier protocol (ref 16), 8% non-denaturing polyacrylamide gel; binding buffer, pH and temperature not given. Kinase pre-treatment: 10 mM MgCl2, 2 mM …

Sequence of GST-MSY3 phosphorylated in vitro by Akt (Q9JKB3 whole entry): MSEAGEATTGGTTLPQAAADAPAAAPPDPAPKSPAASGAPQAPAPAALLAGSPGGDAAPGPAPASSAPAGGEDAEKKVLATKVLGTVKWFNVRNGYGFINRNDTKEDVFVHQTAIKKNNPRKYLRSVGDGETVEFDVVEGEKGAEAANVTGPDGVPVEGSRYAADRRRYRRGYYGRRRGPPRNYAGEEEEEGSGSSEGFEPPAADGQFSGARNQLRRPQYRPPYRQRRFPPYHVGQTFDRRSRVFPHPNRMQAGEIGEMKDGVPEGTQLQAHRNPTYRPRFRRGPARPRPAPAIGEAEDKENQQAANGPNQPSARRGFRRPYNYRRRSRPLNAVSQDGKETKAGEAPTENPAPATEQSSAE

## TCTTGATGTGCAGCAACAGCT (double strand) [MYOwt (myogHCE)]
  binding signal (% of unphosphorylated GST-MSY3): < 50
